Broadly, the Kd is the concentration at which binding is half-saturated. The low end stands for tighter binding, the high end for weaker binding.

Holding throughout (details): remark: other sources report otherwise
Assay [1] has as its target human MS4A4A (human), Q96JQ5. The assay can be described thus: functional affinity, FACS titration on stably transfected 300.19 cells.
The target in assay [2] is human MS4A4A (human), Q96JQ5. The assay can be described thus: flow cytometry (anti-mouse IgG Fc-APC) on U937 cells transfected with human MS4A4A (Plate B); untransfected U937 cells (Plate A): mean 313. A general note: Flow cytometry measures light scatter and fluorescence of single cells or particles in a stream.
For assay [3], the target named is human MS4A4A (human), Q96JQ5. In words: flow cytometry (anti-mouse IgG Fc-APC) on 300.19 cells transfected with human MS4A4A (Plate D); untransfected 300.19 cells (Plate C): mean 122.

B1: anti-MS4A4A antibody 4A-21 (murine) (antibody, IgG1, V domains shown)
VH: QIQLVQSGPELKKPGETVKISCKASGYIFTSYGLSWVKQTPGKGLKWMGWINTYSGVPTYANDFKGRFAFSLETSASTTYLRINNLKNDDTATYFCARSLVDYWGQGTPLTVSS
VL: not shown
In assay [1], B1 returned a Kd of 14 nM. Further, the Mean : APC-A was 7370 in assay [2] and 3600 in assay [3].

B2: anti-MS4A4A antibody 4A-21, huIgG1 chimera (antibody, V domains shown)
VH: B1 VH
VL: not shown
For the molecule B2, in assay [1], the Kd was 8.7 nM.

(Values after US20230126400A1.)
